According to paper PMC10377887, “Individual Contributions of Amido Acid Residues Tyr122, Ile168, and Asp173 to the Activity and Substrate Specificity of Human DNA Dioxygenase ABH2”:

How the values were obtained:
Assay in all cases: EMSA; 0.5 mM αKG, 10 mM Mg2+, 2 mM ascorbate; EMSA: 50 mM Tris-HCl pH 8.0, 50 mM KCl, 10 mM MgCl2, 0.5 mM αKG, 2 mM Na ascorbate; 1.2 µM DNA, 0.4-12.8 µM protein; 10 min 37 °C then 5 min on ice; 10% native
Conditions in all cases: protein: recombinant; tags: N-terminal His6; label: 5'-FAM on strand 1; blunt
ABH2 D173A = target: T1, ABH2 D173A (human, UniProt Q6NS38 1-261, D173A)
T1 sequence: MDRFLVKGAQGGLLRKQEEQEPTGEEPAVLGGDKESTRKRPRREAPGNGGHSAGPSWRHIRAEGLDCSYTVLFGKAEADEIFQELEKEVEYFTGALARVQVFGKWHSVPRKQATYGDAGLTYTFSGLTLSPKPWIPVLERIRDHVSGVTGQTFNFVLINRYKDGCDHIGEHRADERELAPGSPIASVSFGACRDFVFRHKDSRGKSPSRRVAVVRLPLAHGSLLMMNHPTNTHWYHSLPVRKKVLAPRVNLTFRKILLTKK

ABH2 I168A = target: T2, ABH2 I168A (human, UniProt Q6NS38 1-261, I168A)
T2 sequence: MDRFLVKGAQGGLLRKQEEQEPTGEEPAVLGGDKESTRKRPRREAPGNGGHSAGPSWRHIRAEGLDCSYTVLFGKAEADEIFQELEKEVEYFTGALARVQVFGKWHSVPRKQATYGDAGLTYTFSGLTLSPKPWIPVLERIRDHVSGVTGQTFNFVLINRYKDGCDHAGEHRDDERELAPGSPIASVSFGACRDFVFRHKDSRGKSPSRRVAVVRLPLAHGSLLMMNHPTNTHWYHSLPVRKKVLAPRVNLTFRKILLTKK

ABH2 Y122A = target: T3, ABH2 Y122A (human, UniProt Q6NS38 1-261, Y122A)
T3 sequence: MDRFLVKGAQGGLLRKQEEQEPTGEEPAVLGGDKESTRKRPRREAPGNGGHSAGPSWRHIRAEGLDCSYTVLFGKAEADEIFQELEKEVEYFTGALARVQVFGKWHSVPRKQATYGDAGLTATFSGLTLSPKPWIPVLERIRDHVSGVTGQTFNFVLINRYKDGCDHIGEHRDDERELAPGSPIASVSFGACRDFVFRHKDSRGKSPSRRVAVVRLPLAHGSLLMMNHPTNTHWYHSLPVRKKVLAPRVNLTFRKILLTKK

Binder | Kd (ABH2 D173A) | Kd (ABH2 I168A) | Kd (ABH2 Y122A)
m1A (dsDNA, N1-methyladenine at position 10 of strand 1) DNA 1: AGTTCAATGATCTTCAT DNA 2: ATGAAGATCATTGAACT | 2.1 ± 0.09 µM | 2.7 ± 0.4 µM | 2.11 ± 0.08 µM
m3C (dsDNA, N3-methylcytosine at position 12 of strand 1) DNA 1: AGTTCAATGATCTTCAT DNA 2: ATGAAGATCATTGAACT | 3.09 ± 0.07 µM | 4.1 ± 0.1 µM | 2.49 ± 0.06 µM
